Test [1] deals with Mouse EphA2 Fc fusion (R&D Systems 639-A2) (Mouse) (UniProt Q03145). The experiment in a line: SPR (Biacore), mouse EphA2-Fc captured by anti-human IgG.
Test [2] deals with Rat EphA2 (in house, 1.4 mol biotin/monomer) (Rat) (UniProt D3ZBN3). The experiment in a line: SPR (Biacore), biotinylated rat EphA2 on streptavidin chip. A general note: In SPR one partner is held on a chip, and binding of the other changes the refractive index at the surface.
The target in test [3] is Human EphA2 (in house, 0.95 mol biotin/monomer) (Human) (UniProt P29317). The experiment in a line: SPR (Biacore), biotinylated human EphA2 on streptavidin chip.
The next test addresses T1, Mouse EphA2 (Ecto) (Mouse, UniProt Q03145 26-538).
T1 construct: extracellular domain
The experiment in a line: FP competition vs Reference Compound C.

*1 amine or outer side, *2 acyl side, *3 side chain or, on linkers, in order; H or OH if unused. Bridges are numbered along the chain shown (N, C = ends). Where no end group is shown, it is not given here. [ ]: non-standard residue; d: D form. The star is where a group is joined. DM1‑SS‑ = DM1-SS- (SPDB) linker/toxin, COc1cc2cc(c1Cl)N(C)C(=O)C[C@H](OC(=O)[C@H](C)N(C)C(=O)CCSSCCCC(=O)*)[C@]1(C)O[C@H]1[C@H](C)[C@@H]1C[C@@](O)(NC(=O)O1)[C@H](OC)/C=C/C=C(\C)C2; TATA = O=C(CC[*:1])N1CN(C(=O)CC[*:2])CN(C(=O)CC[*:3])C1; DM1‑SS(SO3H)‑ = DM1-SS(SO3H)- (SO3H-SPDB) linker/toxin; DM1‑SS‑(Me)‑ = DM1-SS-(Me)- (SPP) linker/toxin; PABC = O=C(OCc1ccc(N[*:1])cc1)[*:2]; Glutaryl = O=C(CCCC(=O)[*:2])[*:1]; hArg = N=C(N)NCCCC[C@H](N)C(=O)O; Cit = NC(=O)NCCC[C@H](N)C(=O)O; βAla = NCCC(=O)O; Sar = CNCC(=O)O

Sequence of Mouse EphA2 Fc fusion (R&D Systems 639-A2) (Mouse) (Q03145 26-538): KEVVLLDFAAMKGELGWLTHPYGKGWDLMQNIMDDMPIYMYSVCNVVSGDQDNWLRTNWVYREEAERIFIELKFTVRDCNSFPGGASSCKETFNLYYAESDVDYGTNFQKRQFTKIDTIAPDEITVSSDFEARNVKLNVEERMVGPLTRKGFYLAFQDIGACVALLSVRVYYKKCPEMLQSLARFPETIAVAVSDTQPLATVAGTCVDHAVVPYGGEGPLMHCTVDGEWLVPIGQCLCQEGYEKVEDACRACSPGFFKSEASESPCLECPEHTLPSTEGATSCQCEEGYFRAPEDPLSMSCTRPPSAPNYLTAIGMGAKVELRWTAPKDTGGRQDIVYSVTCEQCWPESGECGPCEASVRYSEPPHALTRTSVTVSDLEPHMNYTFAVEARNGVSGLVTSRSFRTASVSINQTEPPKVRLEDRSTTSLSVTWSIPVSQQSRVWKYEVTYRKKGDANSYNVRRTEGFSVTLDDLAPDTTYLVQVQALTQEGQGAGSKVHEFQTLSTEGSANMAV
Sequence of Human EphA2 (in house, 0.95 mol biotin/monomer) (Human) (P29317 25-534 limits assumed): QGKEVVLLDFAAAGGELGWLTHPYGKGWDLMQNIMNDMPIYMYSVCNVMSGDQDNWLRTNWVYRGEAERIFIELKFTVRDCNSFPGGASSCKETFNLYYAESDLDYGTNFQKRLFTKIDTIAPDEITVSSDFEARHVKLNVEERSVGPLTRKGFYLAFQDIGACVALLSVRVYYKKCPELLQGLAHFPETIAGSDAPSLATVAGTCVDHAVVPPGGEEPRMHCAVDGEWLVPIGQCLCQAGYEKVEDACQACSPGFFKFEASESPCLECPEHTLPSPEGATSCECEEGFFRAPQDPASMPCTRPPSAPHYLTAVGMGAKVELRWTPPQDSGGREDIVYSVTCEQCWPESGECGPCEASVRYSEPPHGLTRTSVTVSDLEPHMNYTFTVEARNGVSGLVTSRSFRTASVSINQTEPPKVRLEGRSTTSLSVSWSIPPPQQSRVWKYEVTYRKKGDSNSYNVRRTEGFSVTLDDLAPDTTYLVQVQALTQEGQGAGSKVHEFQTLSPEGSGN
T1 sequence (Q03145 26-538): as the sequence (Q03145 26-538) above
Method for Mouse EphA2 (Ecto): The gain used for analysis was determined for each tracer at the end of the 60 minutes where there was no protein in the well. […] “Lig” was a defined value of the concentration of tracer used.

On to {DM1‑SS(SO3H)‑}-[βAla][Sar][Sar][Sar][Sar][Sar][Sar][Sar][Sar][Sar][Sar]A[hArg]DCPLVNPLCLHPGWTC (linker 15-22-29 via TATA; not fully specified (C-terminus)) [BCY6082], for which, in test [1], the Kd (commonly a measure of binding affinity in units of concentration) turned out to be 18.3 nM; the koff (in general, the first-order rate constant of dissociation) was determined as 0.00597 s⁻¹; the kon (usually a measure of how fast the partners come together) was 327000 M⁻¹ s⁻¹; the t1/2 was determined as 1.9 min. In test [2], the Kd amounted to 28.8 nM, the koff is 0.00364 s⁻¹, the kon was determined as 126000 M⁻¹ s⁻¹ and the t1/2 turned out to be 3.2 min. Also, in test [3], the Kd stood at 2.42 nM, the koff came out at 0.00242 s⁻¹, the kon is 987000 M⁻¹ s⁻¹ and the t1/2 turned out to be 4.8 min.
Regarding {MMAE-PABC-Cit-Val-Glutaryl}-[βAla][Sar][Sar][Sar][Sar][Sar][Sar][Sar][Sar][Sar][Sar]A[hArg]DCPLVNPLCLHPGWTC (linker 15-22-29 via TATA; not fully specified (C-terminus)) [BCY6033], in test [1], the Kd was determined as 21.8 nM, the koff was determined as 0.00637 s⁻¹, the kon came to 292000 M⁻¹ s⁻¹ and the t1/2 came out at 1.8 min. Besides, in test [2], the Kd amounted to 166 nM, the koff is 0.00442 s⁻¹, the kon was 26700 M⁻¹ s⁻¹ and the t1/2 was 2.6 min. In test [3], the Kd is 3.41 nM, the off-rate constant (koff) is 0.00343 s⁻¹, the kon came to 999000 M⁻¹ s⁻¹ and the t1/2 stood at 3.5 min.
For the molecule ACPLVNPLCLHPGWTCLHG (linker 2-9-16 via TATA; not fully specified (C-terminus)) [Bicycle Compound 73], in the test with Mouse EphA2 (Ecto), the Ki (usually a dissociation constant, usually derived from enzyme kinetics or from competition with a known ligand) was 7.27 nM.
In test [3], {DM1‑SS‑(Me)‑}-[βAla][Sar][Sar][Sar][Sar][Sar][Sar][Sar][Sar][Sar][Sar]A[hArg]DCPLVNPLCLHPGWTC (linker 15-22-29 via TATA; not fully specified (C-terminus)) [BCY6032] gave a Kd of 2.1 nM, a koff of 0.00527 s⁻¹, a kon of 2.52e+06 M⁻¹ s⁻¹ and a t1/2 of 2.2 min.
The like results for {MMAE-PABC-Cit-Trp-Glutaryl}-[βAla][Sar][Sar][Sar][Sar][Sar][Sar][Sar][Sar][Sar][Sar]A[hArg]DCPLVNPLCLHPGWTC (linker 15-22-29 via TATA; not fully specified (C-terminus)) [BCY6034] were, in that order, 1.64 nM, 0.00365 s⁻¹, 2.23e+06 M⁻¹ s⁻¹ and 3.2 min.
The like results for {DM1‑SS‑}-[βAla][Sar][Sar][Sar][Sar][Sar][Sar][Sar][Sar][Sar][Sar]A[hArg]DCPLVNPLCLHPGWTC (linker 15-22-29 via TATA; not fully specified (C-terminus)) [BCY6031] were, in that order, 1.99 nM, 0.00495 s⁻¹, 2.49e+06 M⁻¹ s⁻¹ and 2.3 min.

Values taken from patent US20260124312A1 (Bicycle, published 2026).
